The target of assay [1] is 5HB-H2 (SARS-CoV-2 5-helix bundle, optimal construct) (SARS-CoV-2) (UniProt P0DTC2). The assay can be described thus: ITC; […]; 298 K; 20 mM HEPES pH 7.5, 150 mM NaCl; […]. (In general: ITC needs no label: the signal is the heat of the interaction.)
The target is the same in assay [2]. The assay can be described thus: BLI; pH 5. For orientation: Biolayer interferometry detects binding as a change in optical thickness at a sensor tip.
Assay [3] shares this target. The assay can be described thus: BLI; pH 4.5.
Assay [4] shares this target. The assay can be described thus: crystal structure.
For assay [5] the target is unchanged. Description: BLI; […]; 20 mM HEPES pH 7.5, 150 mM NaCl, 0.05% Tween 20, 298 K; 1:1 model.
Assay [6] shares this target. Description: BLI; […]; 20 mM MES pH 6.0, 150 mM NaCl, 0.05% Tween 20, 298 K; 1:1 model.
For assay [7] the target is unchanged. The assay can be described thus: BLI; […]; 20 mM MES pH 5.5, 150 mM NaCl, 0.05% Tween 20, 298 K; 1:1 model.

By Kd is commonly meant a measure of binding affinity in units of concentration. Read a low Kd as tighter binding. In general, stoichiometry N refers to the number of molecules, sites or subunits per partner or assembly. Take “HR2P, 36-mer peptide derived from SARS-CoV-2 S HR2 (D1168-L1203)”: the dissociation constant (Kd) was found to be 5.12 nM in assay [1]; 2.43 nM in assay [2]; 1.37 nM in assay [3]; 4.91 nM in assay [5]; 3.22 nM in assay [6]; 3.08 nM in assay [7]. Moreover, the stoichiometry N in assay [4] came to 1.

(Values after paper PMC9359175.)
